Patent US20170361126A1, “Compositions and Methods for Inducing Nanoparticle Mediated Microvascular Embolization of Tumors” (Vindico NanoBioTechnology, LLC, priority 2011, published 2017)
Blank lines part the entries; values can stand above or below the molecule they belong to.

How the values were obtained:
[1] = Oxygen equilibrium binding curves (Hemox Analyzer, Hill model); settings: partial pressure of O2 at 50% saturation; 37° C.
Procedure: Oxygen equilibrium binding curves of PEM and free Mb dispersions may be measured using a Hemox™ Analyzer at physiological temperature (37° C.). In brief, samples may be allowed to saturate to a pO2 of 147 mm Hg using compressed air and then deoxygenated using a compressed nitrogen stream. UV-Vis absorbance measurements of oxygenated and deoxygenated samples may be recorded as a function of pO2 via dual wavelength spectroscopy. Oxygen-PEM/myoglobin equilibrium curves may be fit to a four-parameter (A0, A∞, P50, n) Hill model:
in which A0 and A∞ represent the absorbance at 0 mm Hg and at full O2 saturation, respectively. The pO2 represents the partial pressure of O2, and P50 represents the partial pressure of O2 where PEM/Mb is 50% saturated with oxygen. Lastly, ‘n’ represents the cooperativity coefficient of PEM/Mb. […] The lower O2 affinity (higher P5o) of PEM than free myoglobin may be attributed to the shielding effect of the polymersome membrane, which was further found to delay the kinetics of O2 binding to PEM.

[2] = Biodistribution/pharmacokinetics after IV injection in 4T1 tumor-bearing mice; type: in vivo, balb/c mice; settings: via the kidneys and into the bladder
Procedure: In example studies, 0.5×10^6 to 1×10^6 4 T1 mouse mammary carcinoma cells were injected into the mammary fat pads of balb/c mice. Once the tumors were greater than 5 mm in diameter, mice were randomized and treated via tail vein catheter with PEMs (at 100 μL of 2.5 mg/mL Mb, corresponding to 50 mg/mL polymer suspensions), empty polymersomes (at equivalent polymer doses), and NIR-Mb (at equivalent myoglobin doses) (n=5 per group). NIR-Mb and PEM were reduced to their oxy-myoglobin form prior to treatment, following protocols discussed above. Mice were sacrificed at 24 h (for biodistribution/pharmacokinetic studies) or at 6-9 days (for histology and toxicology assessment following tumor efficacy studies). […]
For all biodistribution studies, NIR imaging of polymersomes, NIR-Mb and PEM was conducted with an MS® Kinetic Imaging System (Perkin Elmer, AeX=745 nm, Aem=810-875 nm) equipped with a Xenogen XGI-8 gas anesthesia system. Fluorescence images were analyzed with Living Image® 4.2 software by measuring radiant efficiency of regions of interest (ROIs). […]
For the pharmacokinetic studies, 15-100 μL blood samples were drawn (using a 5.5 mm lancet, Goldenrod) from the submandibular vein of the mouse and collected directly into heparinized capillary tubes (Kimble). […] The total radiant efficiency of the plasma in each capillary tube was measured in a region of interest of consistent dimensions. […]

[3] = Serum chemistry panel and liver histology of treated tumor-bearing mice; type: in vivo; settings: n=5 mice per treatment; FIG. 21
Procedure: In example studies, 0.5×10^6 to 1×10^6 4 T1 mouse mammary carcinoma cells were injected into the mammary fat pads of balb/c mice. Once the tumors were greater than 5 mm in diameter, mice were randomized and treated via tail vein catheter with PEMs (at 100 μL of 2.5 mg/mL Mb, corresponding to 50 mg/mL polymer suspensions), empty polymersomes (at equivalent polymer doses), and NIR-Mb (at equivalent myoglobin doses) (n=5 per group). NIR-Mb and PEM were reduced to their oxy-myoglobin form prior to treatment, following protocols discussed above. Mice were sacrificed at 24 h (for biodistribution/pharmacokinetic studies) or at 6-9 days (for histology and toxicology assessment following tumor efficacy studies). In both cases, EF-5 was used to stain for hypoxia and Hoechst solution for perfusion. Tumors were collected at sacrifice. Immunofluorescence (IF) was carried out to image EF-5 and Hoechst distribution throughout the tumors. The same tumor sections were also stained with hematoxylin and eosin (H&E) for immunohistologic (IHC) analysis. Blood was collected via cardiac puncture at sacrifice; plasma was isolated and stored at −80° C. for later analyses.
FIG. 21 provides results of a serum chemistry panel done for a set of tumor-bearing mice injected with each of the following treatments (n=5 mice per treatment): NIR-myoglobin (control), empty polymersomes (control), and PEMs. […]

- P50 [1]: ~2 mm Hg
B1: free Mb: free (unencapsulated) myoglobin, a cytoplasmic heme protein (protein, UniProt P02144 2-154, looked up)
Myoglobin: GLSDGEWQLVLNVWGKVEADIPGHGQEVLIRLFKGHPETLEKFDKFKHLKSEDEMKASEDLKKHGATVLTALGGILKKKGHHEAEIKPLAQSHATKHKIPVKYLEFISECIIQVLQSKHPGDFGADAQGAMNKALELFRKDMASNYKELGFQG

B2: NIR-Mb: near-infrared fluorophore (IRDye800cw NHS) covalently attached to the lysines on horse skeletal myoglobin; negative control (conjugate, UniProt P68082 2-154, looked up)
Myoglobin: GLSDGEWQQVLNVWGKVEADIAGHGQEVLIRLFTGHPETLEKFDKFKHLKTEAEMKASEDLKKHGTVVLTALGGILKKKGHHEAELKPLAQSHATKHKIPIKYLEFISDAIIHVLHSKHPGDFGADAQGAMTKALELFRNDIAAKYKELGFQG
modifications: IRDye800CW NHS on lysines
notes: near-infrared fluorophore (IRDye800cw NHS) covalently attached to the lysines on horse skeletal myoglobin; negative control
- plasma clearance [2]: extremely rapid plasma clearance
- serum chemistry panel [3]: no consistently elevated levels for any parameter
